Experimental data as given in patent US10238736B2, “Adjuvant compositions” (priority 2008, dated 2019).

System: OVA-specific CTL responses
Experiment: Relative CTL/cytokine/tetramer responses of mice immunized with OVA
Format: in vivo, C57131/6 mice
Method: Female C57131/6 mice (n=10 per group) with a body weight of about 18-20 g were used in the study. They were immunized via intramuscular (IM) injection into the left tibialis anterior muscle with a total volume of 50 μl on study days 0, 14 and 21.
A dose of the composition comprised, in various combinations, one or more of the following components: • Buffer: NaH2PO4.2H20 (229.32 mg/L), NaCl (1168.00 mg/L) and Na2HPO4 (1144.00 mg/L), dissolved in WFI and sterile filtered with a 0.1 μm filter. • Ovalbumin (OVA—Antigen): 10 μg • CpG ODN: 10 μg • Cholesterol: 1 μg • Quil A: 1 μg • DDA: 0.5 μg • Carbopol: 0.0375% • R1005: 50 μg Vaccine Preparation
Buffer was placed in a 50 ml flask with stir bar and stirred at a constant speed throughout all following steps. The components were added in the following order: Antigen (OVA); CPG ODN; Quil A; cholesterol (drop wise); DDA (drop wise); Carbopol®; and Bay R1005®. The composition was stirred at room temperature (approximately 25° C.) for a minimum of 30 minutes while protected from light by covering with foil. The solution was forced through a 25G needle into a syringe to break any large floating particles to obtain a uniform (cloudy) suspension and transferred to sterile glass vials for storage.
The following samples were collected: • Plasma: 4 weeks after the prime vaccination (1 week after second booster vaccination) • Cytotoxic T lymphocyte (CTL) (6 weeks after the prime vaccination (3 weeks after second booster vaccination) • Cytokine secretion in supernatant (4 weeks after the prime vaccination • 24-hour supernatant (IL-2, IL-4, IL-10, TNF • 72-hour supernatant (IFN-g • Tetramer (4 weeks after the prime vaccination • Cytokine producing T cells (6 weeks after the prime vaccination
The results are provided as a relative score that for each adjuvant showing the effect of the adjuvant. The endpoints are a relative scale based on the sum of the individual Cytotoxic T—Lymphocyte responses.

B1: OVA: Ovalbumin antigen, 10 μg, without adjuvant (protein, UniProt P01012 2-386, looked up)
Ovalbumin: GSIGAASMEFCFDVFKELKVHHANENIFYCPIAIMSALAMVYLGAKDSTRTQINKVVRFDKLPGFGDSIEAQCGTSVNVHSSLRDILNQITKPNDVYSFSLASRLYAEERYPILPEYLQCVKELYRGGLEPINFQTAADQARELINSWVESQTNGIIRNVLQPSSVDSQTAMVLVNAIVFKGLWEKAFKDEDTQAMPFRVTEQESKPVQMMYQIGLFRVASMASEKMKILELPFASGTMSMLVLLPDEVSGLEQLESIINFEKLTEWTSSNVMEERKIKVYLPRMKMEEKYNLTSVLMAMGITDVFSSSANLSGISSAESLKISQAVHAAHAEINEAGREVVGSAEAGVDAASVSEEFRADHPFLFCIKHIATNAVLFFGRCVSP
Relative CTL Responses: Tetramer (relative score, 4 weeks after the prime vaccination): 1
Relative CTL Responses: CTL (relative score, 6 weeks after the prime vaccination): 1
Relative CTL Responses: IL-2 (relative score, 24-hour supernatant): 1
Relative CTL Responses: IFN-g (relative score, 72-hour supernatant): 1
Relative CTL Responses: Total (sum of the individual relative scores): 4
